The values that follow come from article PMC11969024 (2025).

Sequences and labels used below:
B1: peptide HD2 (from tick evasin EVA4) / CCL19 (biotinylated, synthetic) (parent complex)
chain 1: EEDDYTAYAPLTCYFT
chain 2: GTNDAEDCCLSVTQKPIPGYIVRNFHYLLIKDGCRVPAVVFTTLRGRQLCAPPDQPWVERIIQRLQRTSAKMKRRSS
B2: peptide HD2 (from tick evasin EVA4) / CCL17 (biotinylated, synthetic) (parent complex)
chain 1: EEDDYTAYAPLTCYFT
chain 2: ARGTNVGRECCLEYFKGAIPLRKLKTWYQTSEDCSRDAIVFVTVQGRAICSDPNNKRVKNAVKYLQSLERS

One test covers variants of B1.
Regarding chain 1 E1D, the enrichment was 0.567 log2 (difference from the parental peptide).

As to chain 1 E1R, the enrichment was -6.95 log2 (difference from the parental peptide). Same read-out and setting: the result for chain 1 Y8F reads -1.35 log2 (difference from the parental peptide).

Take chain 1 F15R: the enrichment was -6.02 log2 (difference from the parental peptide). Still for that read-out and setting: the result for chain 1 F15K reads -4.98 log2 (difference from the parental peptide); that for chain 1 T6M, 1.73 log2 (difference from the parental peptide). Regarding chain 1 A9N, the enrichment was -3.82 log2 (difference from the parental peptide). The same measure, in the same setting: with chain 1 A9S the figure was -6.72 log2 (difference from the parental peptide).

With chain 1 L11R, the enrichment is -3.8 log2 (difference from the parental peptide). chain 1 Y14K: the enrichment was -5.55 log2 (difference from the parental peptide). The same measure, in the same setting: the result for chain 1 Y14L reads -9.46 log2 (difference from the parental peptide); that for chain 1 T16M, 0.0438 log2 (difference from the parental peptide); that for chain 1 T16G, -4.08 log2 (difference from the parental peptide).

Another test covers variants of B2.
For chain 1 L11P, the enrichment is -5.62 log2 (difference from the parental peptide). Same read-out and setting: the result for chain 1 L11S reads -0.205 log2 (difference from the parental peptide); that for chain 1 L11G, -8.35 log2 (difference from the parental peptide); that for chain 1 L11C, 0.521 log2 (difference from the parental peptide). chain 1 L11M: the enrichment is 3.11 log2 (difference from the parental peptide). Same read-out and setting: the result for chain 1 L11R reads 3.2 log2 (difference from the parental peptide); that for chain 1 L11F, -0.993 log2 (difference from the parental peptide); that for chain 1 L11H, 2.36 log2 (difference from the parental peptide). On the same count and under the same terms, the result for chain 1 T16Q reads 1.17 log2 (difference from the parental peptide); that for chain 1 T16I, -0.321 log2 (difference from the parental peptide); that for chain 1 T16F, -0.625 log2 (difference from the parental peptide).

For the variant chain 1 T16L, the enrichment is 0.451 log2 (difference from the parental peptide). Turning to chain 1 T16S, the enrichment is 0.663 log2 (difference from the parental peptide). As to chain 1 T16Y, the enrichment is -0.84 log2 (difference from the parental peptide). On the same count and under the same terms, with chain 1 T16E the figure was 1.12 log2 (difference from the parental peptide); with chain 1 T16N, 0.157 log2 (difference from the parental peptide); with chain 1 T16W, -1.23 log2 (difference from the parental peptide). For the variant chain 1 T16H, the enrichment is 0.123 log2 (difference from the parental peptide). Consider chain 1 T16K, for which the enrichment was 0.193 log2 (difference from the parental peptide). As to chain 1 A9F, the enrichment was -8.26 log2 (difference from the parental peptide). Same read-out and setting: the result for chain 1 A9N reads -4.52 log2 (difference from the parental peptide); that for chain 1 A9L, -7.01 log2 (difference from the parental peptide); that for chain 1 A9R, -4.45 log2 (difference from the parental peptide). With chain 1 A9H, the enrichment is -5.14 log2 (difference from the parental peptide). Same read-out and setting: with chain 1 A9Q the figure was -1.77 log2 (difference from the parental peptide); with chain 1 A9S, -0.697 log2 (difference from the parental peptide); with chain 1 A9T, -4.51 log2 (difference from the parental peptide). In the case of chain 1 A9M, the enrichment is -5.43 log2 (difference from the parental peptide).

On to chain 1 Y5A, for which the enrichment was -5.17 log2 (difference from the parental peptide).

As to chain 1 Y5P, the enrichment is -4.51 log2 (difference from the parental peptide). Still for that read-out and setting: the result for chain 1 Y5L reads -3.76 log2 (difference from the parental peptide); that for chain 1 Y5H, -5.84 log2 (difference from the parental peptide); that for chain 1 Y5C, -5.02 log2 (difference from the parental peptide). Turning to chain 1 Y5D, the enrichment was -5.57 log2 (difference from the parental peptide). On the same count and under the same terms, the result for chain 1 Y5V reads -6.56 log2 (difference from the parental peptide); that for chain 1 F15I, 0.435 log2 (difference from the parental peptide); that for chain 1 F15W, -1.65 log2 (difference from the parental peptide).

Take chain 1 F15E: the enrichment was -1.17 log2 (difference from the parental peptide). Still for that read-out and setting: with chain 1 F15S the figure was -0.792 log2 (difference from the parental peptide); with chain 1 F15D, -0.947 log2 (difference from the parental peptide). Still for that read-out and setting: the result for chain 1 F15C reads -5.94 log2 (difference from the parental peptide); that for chain 1 F15G, -3.49 log2 (difference from the parental peptide).

Consider chain 1 A7H, for which the enrichment is 1.03 log2 (difference from the parental peptide).

Regarding chain 1 A7K, the enrichment was 3.56 log2 (difference from the parental peptide). Still for that read-out and setting: with chain 1 A7Q the figure was 1.91 log2 (difference from the parental peptide); with chain 1 A7R, 3.96 log2 (difference from the parental peptide); with chain 1 A7T, -1.52 log2 (difference from the parental peptide). Same read-out and setting: with chain 1 A7I the figure was -4.17 log2 (difference from the parental peptide); with chain 1 A7Y, -1.58 log2 (difference from the parental peptide); with chain 1 A7L, -0.26 log2 (difference from the parental peptide).

For the variant chain 1 A7P, the enrichment is 1.3 log2 (difference from the parental peptide).

With chain 1 A7V, the enrichment is -4.48 log2 (difference from the parental peptide).

Consider chain 1 E2V, for which the enrichment was -1.03 log2 (difference from the parental peptide). With chain 1 E2Q, the enrichment is -0.416 log2 (difference from the parental peptide). Still for that read-out and setting: with chain 1 E2C the figure was -10.1 log2 (difference from the parental peptide); with chain 1 E2A, -0.532 log2 (difference from the parental peptide).

For the variant chain 1 E2L, the enrichment was -1.6 log2 (difference from the parental peptide).

Regarding chain 1 E2R, the enrichment was -1.35 log2 (difference from the parental peptide). Same read-out and setting: with chain 1 E2P the figure was -2.4 log2 (difference from the parental peptide); with chain 1 Y8S, -8.85 log2 (difference from the parental peptide); with chain 1 Y8F, 0.399 log2 (difference from the parental peptide). The same measure, in the same setting: with chain 1 E1L the figure was -0.975 log2 (difference from the parental peptide); with chain 1 E1K, -0.679 log2 (difference from the parental peptide). On the same count and under the same terms, with chain 1 E1Y the figure was -0.248 log2 (difference from the parental peptide); with chain 1 E1F, -1.75 log2 (difference from the parental peptide); with chain 1 E1T, -0.325 log2 (difference from the parental peptide). As to chain 1 E1W, the enrichment was -2.36 log2 (difference from the parental peptide). On the same count and under the same terms, with chain 1 E1G the figure was 0.607 log2 (difference from the parental peptide); with chain 1 E1Q, 0.156 log2 (difference from the parental peptide). Same read-out and setting: the result for chain 1 E1P reads -1.24 log2 (difference from the parental peptide); that for chain 1 E1R, -1.72 log2 (difference from the parental peptide); that for chain 1 E1S, 0.17 log2 (difference from the parental peptide).

chain 1 E1H: the enrichment was -0.323 log2 (difference from the parental peptide). Take chain 1 P10Y: the enrichment is -6.08 log2 (difference from the parental peptide). As for chain 1 P10T, the enrichment is -7.97 log2 (difference from the parental peptide).

Turning to chain 1 P10F, the enrichment is -7.51 log2 (difference from the parental peptide). On the same count and under the same terms, with chain 1 P10Q the figure was -4.91 log2 (difference from the parental peptide); with chain 1 P10L, -8.28 log2 (difference from the parental peptide). Turning to chain 1 D4E, the enrichment was -0.373 log2 (difference from the parental peptide). On the same count and under the same terms, with chain 1 D4Y the figure was -5.69 log2 (difference from the parental peptide); with chain 1 D4W, -7.69 log2 (difference from the parental peptide); with chain 1 D4H, -6.29 log2 (difference from the parental peptide).

On to chain 1 D4A, for which the enrichment is -3.66 log2 (difference from the parental peptide). Same read-out and setting: the result for chain 1 D4L reads -4.56 log2 (difference from the parental peptide); that for chain 1 D4T, -5.39 log2 (difference from the parental peptide). On the same count and under the same terms, the result for chain 1 D4Q reads -3.42 log2 (difference from the parental peptide); that for chain 1 D4G, -4.74 log2 (difference from the parental peptide); that for chain 1 D4V, -7.15 log2 (difference from the parental peptide). On the same count and under the same terms, with chain 1 T12E the figure was -5.73 log2 (difference from the parental peptide); with chain 1 T12L, 0.297 log2 (difference from the parental peptide); with chain 1 T12V, -0.896 log2 (difference from the parental peptide). For the variant chain 1 T12A, the enrichment was -4.61 log2 (difference from the parental peptide).

Consider chain 1 T12R, for which the enrichment was -1.85 log2 (difference from the parental peptide). On the same count and under the same terms, with chain 1 T12F the figure was 0.112 log2 (difference from the parental peptide); with chain 1 T12Q, -1.6 log2 (difference from the parental peptide). Same read-out and setting: with chain 1 T12C the figure was -3.34 log2 (difference from the parental peptide); with chain 1 T12H, -2.06 log2 (difference from the parental peptide).

With chain 1 C13R, the enrichment is -10.7 log2 (difference from the parental peptide).

With chain 1 C13I, the enrichment was -2.82 log2 (difference from the parental peptide). The same measure, in the same setting: with chain 1 C13Y the figure was -5.68 log2 (difference from the parental peptide); with chain 1 C13L, -6.33 log2 (difference from the parental peptide).

With chain 1 C13P, the enrichment is -6.7 log2 (difference from the parental peptide). Same read-out and setting: with chain 1 C13E the figure was -7.45 log2 (difference from the parental peptide); with chain 1 D3W, -4.02 log2 (difference from the parental peptide). On the same count and under the same terms, with chain 1 D3S the figure was -2.79 log2 (difference from the parental peptide). Same read-out and setting: the result for chain 1 D3K reads -3.46 log2 (difference from the parental peptide); that for chain 1 D3Q, -1.63 log2 (difference from the parental peptide). As for chain 1 D3R, the enrichment was -5.97 log2 (difference from the parental peptide). As to chain 1 D3N, the enrichment was -1.74 log2 (difference from the parental peptide). Still for that read-out and setting: with chain 1 D3G the figure was -4.23 log2 (difference from the parental peptide). Regarding chain 1 D3P, the enrichment was -2.92 log2 (difference from the parental peptide). The same measure, in the same setting: with chain 1 D3M the figure was -4.48 log2 (difference from the parental peptide).

Take chain 1 D3V: the enrichment was -5.2 log2 (difference from the parental peptide). Same read-out and setting: with chain 1 D3I the figure was -4.4 log2 (difference from the parental peptide); with chain 1 Y14I, -2.85 log2 (difference from the parental peptide); with chain 1 Y14G, -6.43 log2 (difference from the parental peptide).

On to chain 1 Y14H, for which the enrichment was -3.18 log2 (difference from the parental peptide). As for chain 1 Y14Q, the enrichment was -4.69 log2 (difference from the parental peptide).

Consider chain 1 Y14W, for which the enrichment is -0.976 log2 (difference from the parental peptide).

In the case of chain 1 Y14P, the enrichment was -7.37 log2 (difference from the parental peptide).

In the case of chain 1 Y14F, the enrichment is -0.272 log2 (difference from the parental peptide). Still for that read-out and setting: the result for chain 1 Y14S reads -5.6 log2 (difference from the parental peptide).

Consider chain 1 Y14V, for which the enrichment is -3.57 log2 (difference from the parental peptide). Still for that read-out and setting: with chain 1 Y14K the figure was -7.27 log2 (difference from the parental peptide); with chain 1 Y14A, -6.44 log2 (difference from the parental peptide); with chain 1 Y14M, -4.32 log2 (difference from the parental peptide).

chain 1 T6M: the enrichment is -0.648 log2 (difference from the parental peptide). chain 1 T6D: the enrichment was 1.63 log2 (difference from the parental peptide). Same read-out and setting: the result for chain 1 T6F reads -2.91 log2 (difference from the parental peptide); that for chain 1 T6Q, 0.398 log2 (difference from the parental peptide); that for chain 1 T6I, -6.22 log2 (difference from the parental peptide).

On to chain 1 T6S, for which the enrichment is 2.6 log2 (difference from the parental peptide). Same read-out and setting: the result for chain 1 T6G reads 2.24 log2 (difference from the parental peptide); that for chain 1 T6E, 1.53 log2 (difference from the parental peptide). On the same count and under the same terms, with chain 1 T6K the figure was 0.208 log2 (difference from the parental peptide); with chain 1 T6N, 0.737 log2 (difference from the parental peptide). Consider chain 1 T6W, for which the enrichment was 0.392 log2 (difference from the parental peptide).
